This assay addresses Gαi1 (human, UniProt P63096 1-354). In words: split reporter.

Gαi1, sequence (P63096 whole entry): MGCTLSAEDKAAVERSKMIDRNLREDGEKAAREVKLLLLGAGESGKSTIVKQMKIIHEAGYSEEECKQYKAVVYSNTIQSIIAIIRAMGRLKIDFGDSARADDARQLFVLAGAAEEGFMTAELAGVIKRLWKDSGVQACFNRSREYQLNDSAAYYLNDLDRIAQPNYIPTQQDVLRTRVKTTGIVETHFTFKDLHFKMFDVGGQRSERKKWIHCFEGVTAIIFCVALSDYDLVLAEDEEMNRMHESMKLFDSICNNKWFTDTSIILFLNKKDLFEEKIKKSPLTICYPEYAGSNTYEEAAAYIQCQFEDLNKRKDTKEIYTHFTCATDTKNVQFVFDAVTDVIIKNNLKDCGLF

B1: RGS17 RH domain (domain or fragment, human, UniProt Q9UGC6 73-201, looked up)
chain: PTAEEVLSWSQNFDKMMKAPAGRNLFREFLRTEYSEENLLFWLACEDLKKEQNKKVIEEKARMIYEDYISILSPKEVSLDSRVREVINRNLLDPNPHMYEDAQLQIYTLMHRDSFPRFLNSQIYKSFVE
Consider B1, for which the “net signal increase in response to AlF4, fold of that of RGS6” value is 2.8 fold and the “net signal increase in response to AlF4, fold of that of RGS7” value worked out at 6.3 fold.

Values taken from paper PMC5330260 (Analytical biochemistry, 2017).
